{"source": "paper doi:10.1101/2025.11.17.688760", "test_system": "P68135", "test": "TIRF microscopy of single actin filaments", "conditions": "other: TIRF microscopy of single actin filaments (depolymerization)", "data": [{"substance": "alpha skeletal actin from rabbit muscle", "values": [{"measurement": "barbed end depolymerization rate (effective off-rate of ADP and ADP.Pi subunits)", "result": "3.4 ± 0.7 sub/s (mean ± SD)"}]}]}
